This is an account of results in PMC10760634.

For test [1], the target named is the PHD and PHF7 (KD values in the range of 3–6 µM). Put plainly: MST.
In test [2] the target is UBE2D2∼Ub (ubiquitin-conjugated UBE2D2 S22R/C85K) (UniProt P62837). Put plainly: SEC.
For test [3] the target is unchanged. Put plainly: ITC.

Chain of PHF7 (mPHF7 28–307) (Q9DAG9 28-307): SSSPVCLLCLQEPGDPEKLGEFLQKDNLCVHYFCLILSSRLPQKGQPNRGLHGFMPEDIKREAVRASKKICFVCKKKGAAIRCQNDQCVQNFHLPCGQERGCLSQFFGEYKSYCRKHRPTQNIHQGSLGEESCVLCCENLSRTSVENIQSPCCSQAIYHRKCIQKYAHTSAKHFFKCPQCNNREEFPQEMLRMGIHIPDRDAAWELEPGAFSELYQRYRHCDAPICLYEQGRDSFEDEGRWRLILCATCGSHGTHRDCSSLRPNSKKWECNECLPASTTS

On to “H3K4me2(1–44) (from UniProt P84233 2-45) (peptide)”, for which the Kd in test [1] fell in the range of 3000 to 6000 nM. In test [2], “PHF7 (mPHF7 28–307) (from UniProt Q9DAG9 28-307) (domain or fragment)” yielded a stoichiometry N of 1. Further, in test [3], the Kd turned out to be 400 nM and the fold stronger affinity than for UBE2D2 alone worked out at 3 fold.

On to “PHF7 RING–PHD (150–307) C164A (from UniProt Q9DAG9 150-307) (domain or fragment)”, for which the fold lower affinity than PHF7 in test [3] is 7 fold.
